Test results: paper PMC11850223

What was measured:
[1] = biological target: T1, trans-heterodimer Hera_1-419/Hera_370-510 (Thermus thermophilus, UniProt O07897;O07897 1-419;370-510); assay: stopped-flow fluorescence
T1 sequence 1: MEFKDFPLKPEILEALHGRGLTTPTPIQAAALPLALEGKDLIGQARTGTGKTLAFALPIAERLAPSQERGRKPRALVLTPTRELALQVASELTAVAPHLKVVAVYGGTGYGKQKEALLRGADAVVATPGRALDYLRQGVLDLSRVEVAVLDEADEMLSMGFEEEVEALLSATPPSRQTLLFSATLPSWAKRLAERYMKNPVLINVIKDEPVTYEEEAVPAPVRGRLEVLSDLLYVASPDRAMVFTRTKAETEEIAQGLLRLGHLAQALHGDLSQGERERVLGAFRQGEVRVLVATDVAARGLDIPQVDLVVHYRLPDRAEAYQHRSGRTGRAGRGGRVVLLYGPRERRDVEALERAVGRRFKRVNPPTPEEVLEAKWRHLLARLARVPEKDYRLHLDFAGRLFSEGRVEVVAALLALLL
T1 sequence 2: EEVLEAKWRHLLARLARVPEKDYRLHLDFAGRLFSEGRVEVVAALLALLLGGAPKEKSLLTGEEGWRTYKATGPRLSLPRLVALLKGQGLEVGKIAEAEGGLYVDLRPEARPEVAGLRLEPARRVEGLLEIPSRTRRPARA

[2] = biological target: T2, Hera/Hera_K51Q heterodimer (Thermus thermophilus, UniProt O07897;O07897 1-510;1-510, K51Q); assay: stopped-flow fluorescence
T2 sequence 1: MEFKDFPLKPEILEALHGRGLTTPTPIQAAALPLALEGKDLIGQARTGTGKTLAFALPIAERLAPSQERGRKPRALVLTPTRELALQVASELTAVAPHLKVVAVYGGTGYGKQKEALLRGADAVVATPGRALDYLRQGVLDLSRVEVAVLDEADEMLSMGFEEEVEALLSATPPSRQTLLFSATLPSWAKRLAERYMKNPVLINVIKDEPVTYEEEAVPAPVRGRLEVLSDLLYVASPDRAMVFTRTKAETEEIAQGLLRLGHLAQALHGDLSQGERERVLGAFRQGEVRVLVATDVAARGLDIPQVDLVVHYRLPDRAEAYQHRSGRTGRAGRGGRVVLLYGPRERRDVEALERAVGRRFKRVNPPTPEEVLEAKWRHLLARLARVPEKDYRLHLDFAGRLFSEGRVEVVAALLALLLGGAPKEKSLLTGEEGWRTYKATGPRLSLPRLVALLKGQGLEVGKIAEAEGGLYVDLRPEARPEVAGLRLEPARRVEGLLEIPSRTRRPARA
T2 sequence 2: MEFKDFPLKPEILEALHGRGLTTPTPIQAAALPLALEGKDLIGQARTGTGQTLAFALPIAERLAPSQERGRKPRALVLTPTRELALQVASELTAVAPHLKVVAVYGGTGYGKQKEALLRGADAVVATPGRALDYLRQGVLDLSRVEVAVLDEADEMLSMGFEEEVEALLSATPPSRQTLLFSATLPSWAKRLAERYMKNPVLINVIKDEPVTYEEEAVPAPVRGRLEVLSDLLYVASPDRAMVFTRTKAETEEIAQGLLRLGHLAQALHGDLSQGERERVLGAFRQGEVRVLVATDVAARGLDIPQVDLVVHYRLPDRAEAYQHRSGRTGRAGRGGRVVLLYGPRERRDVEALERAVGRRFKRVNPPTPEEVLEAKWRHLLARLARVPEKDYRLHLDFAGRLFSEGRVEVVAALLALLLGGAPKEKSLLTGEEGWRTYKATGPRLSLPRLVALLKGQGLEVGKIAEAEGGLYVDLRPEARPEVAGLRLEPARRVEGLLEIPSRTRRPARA

Hera [3] = biological target: T3, Hera (Thermus thermophilus, UniProt O07897 1-510); assay: stopped-flow fluorescence
T3 sequence: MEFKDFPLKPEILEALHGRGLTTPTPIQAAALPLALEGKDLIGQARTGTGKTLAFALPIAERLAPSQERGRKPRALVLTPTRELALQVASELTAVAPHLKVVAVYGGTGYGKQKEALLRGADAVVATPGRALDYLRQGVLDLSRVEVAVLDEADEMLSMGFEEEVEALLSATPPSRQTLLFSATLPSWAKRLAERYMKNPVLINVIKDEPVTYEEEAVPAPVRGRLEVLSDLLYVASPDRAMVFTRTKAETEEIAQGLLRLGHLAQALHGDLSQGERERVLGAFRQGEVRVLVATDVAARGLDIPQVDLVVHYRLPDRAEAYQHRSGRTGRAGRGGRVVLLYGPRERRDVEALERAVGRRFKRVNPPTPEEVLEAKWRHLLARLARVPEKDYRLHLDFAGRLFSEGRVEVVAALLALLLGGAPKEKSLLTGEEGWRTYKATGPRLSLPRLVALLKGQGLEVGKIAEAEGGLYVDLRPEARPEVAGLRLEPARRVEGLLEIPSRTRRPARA

Hera_K51Q [4] = biological target: T4, Hera_K51Q (Thermus thermophilus, UniProt O07897 1-510, K51Q); assay: stopped-flow fluorescence
T4 sequence: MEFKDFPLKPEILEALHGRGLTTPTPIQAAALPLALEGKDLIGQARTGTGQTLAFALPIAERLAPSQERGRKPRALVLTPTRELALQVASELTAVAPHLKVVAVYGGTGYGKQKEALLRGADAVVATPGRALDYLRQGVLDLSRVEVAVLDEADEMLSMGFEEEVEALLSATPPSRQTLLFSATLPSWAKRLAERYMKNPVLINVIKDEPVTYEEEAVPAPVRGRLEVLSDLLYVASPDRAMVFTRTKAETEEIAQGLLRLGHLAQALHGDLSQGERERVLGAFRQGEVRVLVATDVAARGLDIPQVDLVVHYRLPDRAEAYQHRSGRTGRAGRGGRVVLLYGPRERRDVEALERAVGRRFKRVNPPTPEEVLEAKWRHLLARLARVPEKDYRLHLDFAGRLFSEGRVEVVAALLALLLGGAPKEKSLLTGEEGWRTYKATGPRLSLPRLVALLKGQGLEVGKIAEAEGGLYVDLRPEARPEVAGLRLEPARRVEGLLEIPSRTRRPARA

[5] = biological target: T2, Hera/Hera_K51Q heterodimer; assay: fluorescence anisotropy
Hera [6] = biological target: T3, Hera; assay: fluorescence anisotropy
Hera_K51Q [7] = biological target: T4, Hera_K51Q; assay: fluorescence anisotropy
[8] = biological target: T5, cis-heterodimer Hera/Hera_208-419 (Thermus thermophilus, UniProt O07897;O07897 1-510;208-419); assay: fluorescence anisotropy
T5 sequence 1: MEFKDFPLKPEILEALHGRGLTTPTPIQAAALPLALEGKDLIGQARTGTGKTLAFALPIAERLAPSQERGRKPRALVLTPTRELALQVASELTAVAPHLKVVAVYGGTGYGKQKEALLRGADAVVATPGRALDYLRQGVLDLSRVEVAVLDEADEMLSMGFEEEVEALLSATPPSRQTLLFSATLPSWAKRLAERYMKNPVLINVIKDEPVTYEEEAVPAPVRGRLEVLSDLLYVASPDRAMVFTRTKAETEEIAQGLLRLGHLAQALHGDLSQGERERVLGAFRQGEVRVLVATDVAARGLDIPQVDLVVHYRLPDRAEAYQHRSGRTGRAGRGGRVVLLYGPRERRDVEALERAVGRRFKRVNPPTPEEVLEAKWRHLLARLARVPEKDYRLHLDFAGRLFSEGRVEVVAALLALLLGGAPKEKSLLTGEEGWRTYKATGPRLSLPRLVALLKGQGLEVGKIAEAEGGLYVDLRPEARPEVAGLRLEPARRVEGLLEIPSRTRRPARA
T5 sequence 2: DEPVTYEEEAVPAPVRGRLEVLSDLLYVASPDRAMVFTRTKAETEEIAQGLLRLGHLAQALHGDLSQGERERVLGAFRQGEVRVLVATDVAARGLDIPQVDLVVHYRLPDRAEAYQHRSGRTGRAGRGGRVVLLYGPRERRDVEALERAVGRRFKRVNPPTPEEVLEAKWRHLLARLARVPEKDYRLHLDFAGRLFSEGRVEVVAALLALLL

Question: Which Kd [1] does the source give for GCAGGUCCCAAGGGUUGGGCUGUUCGCCCAUU (structured_RNA) [fl-32mer] here?
Answer: The Kd was 7300 ± 1000 nM.

Question: And the Kd [2]?
Answer: Its Kd is 130 ± 70 nM.

Question: What about the Kd (Hera [3]) of the same binder?
Answer: The Kd was 490 ± 220 nM.

Question: What about the Kd (Hera_K51Q [4]) of the same binder?
Answer: The Kd was 1500 ± 700 nM.

Question: And the Kd [5]?
Answer: Its Kd is 80 ± 20 nM.

Question: And the Kd (Hera [6])?
Answer: Its Kd is 60 ± 10 nM.

Question: And the Kd (Hera_K51Q [7])?
Answer: Its Kd is 170 ± 20 nM.

Question: What about the Kd [8] of the same binder?
Answer: The Kd was 126 ± 9 nM.
